What is called Kd is the concentration at which binding is half-saturated. A lower Kd goes with tighter binding.

What all share (experiment): EMSA
Holding throughout (details): 25 mM Tris-HCl pH 7.5, 50 mM KCl, 0.5 mM MgCl2, 100 µg/ml BSA, 1 mM DTT, 10% glycerol; 0.1 µM DNA; 37°C, 30 min; 1% agarose gel, ethidium bromide

For data set [1], the system named is MBP-3B2ct (C-terminal DNMT3B2);GST-3B3ct (human;human).
Data set [2] deals with MBP-3B4ct (C-terminal DNMT3B4) (human).
Data set [3] concerns MBP-3B2ct (C-terminal DNMT3B2) (human).
Data set [4] relates to MBP-3B2ct (C-terminal DNMT3B2);GST-3B2ct (human;human).
Data set [5] concerns MBP-3B3ct (C-terminal DNMT3B3) (human).

Consider 420 bp DNMT3B PWWP fragment, for which the Kd in data set [1] was found to be 1500 nM; in data set [2], 2420 nM; in data set [3], 220 nM; in data set [4], 400 nM; in data set [5], 160 nM.

(Values after paper PMC3716610.)
